In publication PMC10998906 (NPJ Vaccines, 2024):

Biological target: H5 GCN4 (IN05 HA, GCN4-trimerized) (Influenza A virus …, UniProt A5A5L7, stabilised)
Experiment: negative-stain EM
Settings: both partners purified

B1: CR9114 Fab (Fab, V domains shown)
VH: QVQLVQSGAEVKKPGSSVKVSCKSSGGTSNNYAISWVRQAPGQGLDWMGGISPIFGSTAYAQKFQGRVTISADIFSNTAYMELNSLTSEDTAVYFCARHGNYYYYSGMDVWGQGTTVTVSS
VL: QSALTQPPAVSGTPGQRVTISCSGSDSNIGRRSVNWYQQFPGTAPKLLIYSNDQRPSVVPDRFSGSKSGTSASLAISGLQSEDEAEYYCAAWDDSLKGAVFGGGTQLTVL
stoichiometry N: 3 Fabs per trimer
